US20160271244A1

Tests used:
[1] = molecular target: Scl 70; assay: Athena autoantigen assay, mAb 6.25 ug/ml
[2] = molecular target: SSB; assay: Athena autoantigen assay, mAb 6.25 ug/ml
[3] = molecular target: Sm; assay: Athena autoantigen assay, mAb 6.25 ug/ml
[4] = molecular target: Jo 1; assay: Athena autoantigen assay, mAb 6.25 ug/ml
[5] = molecular target: RNP; assay: Athena autoantigen assay, mAb 6.25 ug/ml
[6] = molecular target: SSA; assay: Athena autoantigen assay, mAb 6.25 ug/ml
[7] = molecular target: Histone; assay: Athena autoantigen assay, mAb 6.25 ug/ml
[8] = molecular target: Scl 70; assay: Athena autoantigen assay, mAb 25 ug/ml
[9] = molecular target: SSB; assay: Athena autoantigen assay, mAb 25 ug/ml
[10] = molecular target: Sm; assay: Athena autoantigen assay, mAb 25 ug/ml
[11] = molecular target: Jo 1; assay: Athena autoantigen assay, mAb 25 ug/ml
[12] = molecular target: RNP; assay: Athena autoantigen assay, mAb 25 ug/ml
[13] = molecular target: SSA; assay: Athena autoantigen assay, mAb 25 ug/ml
[14] = molecular target: Histone; assay: Athena autoantigen assay, mAb 25 ug/ml
[15] = molecular target: HCV E2 (HCV); assay: Luminex assay, antibody 50 µg/ml
[16] = molecular target: Influenza HA (Wisconsin) (influenza virus); assay: Luminex assay, antibody 50 µg/ml
[17] = molecular target: Scl 70; assay: Athena autoantigen assay, mAb 12.5 ug/ml
[18] = molecular target: SSB; assay: Athena autoantigen assay, mAb 12.5 ug/ml
[19] = molecular target: Sm; assay: Athena autoantigen assay, mAb 12.5 ug/ml
[20] = molecular target: Jo 1; assay: Athena autoantigen assay, mAb 12.5 ug/ml
[21] = molecular target: RNP; assay: Athena autoantigen assay, mAb 12.5 ug/ml
[22] = molecular target: SSA; assay: Athena autoantigen assay, mAb 12.5 ug/ml
[23] = molecular target: Histone; assay: Athena autoantigen assay, mAb 12.5 ug/ml
[24] = molecular target: RNP; assay: Athena autoantigen assay, mAb 50 ug/ml
[25] = molecular target: Histone; assay: Athena autoantigen assay, mAb 50 ug/ml
[26] = molecular target: gp120 (Table 2, strain not given); assay: Luminex bead assay
[27] = molecular target: deglycosylated JRFL gp140 CF (HIV-1); assay: SPR, MAb on the surface, Env injected; JRFL wt DEG 5 (PNGase 5 U/µg); Kon (x10^3 M-1s-1)
[28] = molecular target: JRFL gp140 (HIV-1); assay: SPR, MAb on the surface, Env injected; JRFFL wt (not deglycosylated); Kon (x10^3 M-1s-1)
[29] = molecular target: JRFL gp140 (HIV-1); assay: SPR, MAb on the surface, Env injected; JRFFL wt (not deglycosylated)
[30] = molecular target: deglycosylated JRFL gp140 CF (HIV-1); assay: SPR, MAb on the surface, Env injected; JRFL wt DEG 20 (PNGase 20 U/µg); Kon (x10^3 M-1s-1)
[31] = molecular target: JRFL gp140 (HIV-1); assay: SPR, MAb on the surface, Env injected; JRFFL wt (not deglycosylated); Koff (x10^-3 s-1)
[32] = molecular target: deglycosylated JRFL gp140 CF (HIV-1); assay: SPR, MAb on the surface, Env injected; JRFL wt DEG 500 (PNGase 500 U/µg)
[33] = molecular target: SSB; assay: Athena autoantigen assay, mAb 50 ug/ml
[34] = molecular target: Jo 1; assay: Athena autoantigen assay, mAb 50 ug/ml
[35] = molecular target: SSA; assay: Athena autoantigen assay, mAb 50 ug/ml
[36] = molecular target: deglycosylated JRFL gp140 CF (HIV-1); assay: SPR, MAb on the surface, Env injected; JRFL wt DEG 5 (PNGase 5 U/µg)
[37] = molecular target: deglycosylated JRFL gp140 CF (HIV-1); assay: SPR, MAb on the surface, Env injected; JRFL wt DEG 20 (PNGase 20 U/µg)
[38] = molecular target: deglycosylated JRFL gp140 CF (HIV-1); assay: SPR, MAb on the surface, Env injected; JRFL wt DEG 5 (PNGase 5 U/µg); Koff (x10^-3 s-1)
[39] = molecular target: deglycosylated JRFL gp140 CF (HIV-1); assay: SPR, MAb on the surface, Env injected; JRFL wt DEG 500 (PNGase 500 U/µg); Kon (x10^3 M-1s-1)
[40] = molecular target: membrane conjugated gp41-inter; assay: SPR, gp41-inter held by Ni on liposomes captured on the chip, mAb injected; bivalent analyte fit [right panel]
[41] = molecular target: deglycosylated JRFL gp140 CF (HIV-1); assay: SPR, MAb on the surface, Env injected; JRFL wt DEG 20 (PNGase 20 U/µg); Koff (x10^-3 s-1)
[42] = molecular target: deglycosylated JRFL gp140 CF (HIV-1); assay: SPR, MAb on the surface, Env injected; JRFL wt DEG 500 (PNGase 500 U/µg); Koff (x10^-3 s-1)
[43] = molecular target: recombinant human kynureninase (rhKYNU) (human) (UniProt Q16719); assay: ELISA on plate-bound rhKynureninase, antibody titrated
Sequence of recombinant human kynureninase (rhKYNU) (human) (Q16719 whole entry): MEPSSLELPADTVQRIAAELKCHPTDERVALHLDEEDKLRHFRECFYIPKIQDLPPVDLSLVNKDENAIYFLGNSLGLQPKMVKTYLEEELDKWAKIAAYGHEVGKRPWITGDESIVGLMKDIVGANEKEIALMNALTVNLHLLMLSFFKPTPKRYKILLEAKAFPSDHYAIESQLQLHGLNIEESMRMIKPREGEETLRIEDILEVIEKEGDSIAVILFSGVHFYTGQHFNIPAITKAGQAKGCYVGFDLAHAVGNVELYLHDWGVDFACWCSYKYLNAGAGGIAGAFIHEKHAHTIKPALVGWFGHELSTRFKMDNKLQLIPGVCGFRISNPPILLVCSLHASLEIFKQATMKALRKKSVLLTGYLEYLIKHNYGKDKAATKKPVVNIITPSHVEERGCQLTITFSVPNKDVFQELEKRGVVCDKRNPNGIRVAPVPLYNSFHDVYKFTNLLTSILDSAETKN

[44] = molecular target: HIV-1 Env gp41 (HIV-1) (UniProt P05877); assay: Luminex bead assay
[45] = molecular target: recombinant human kynureninase (rhKYNU) (human) (UniProt Q16719); assay: ELISA on plate-bound rhKYNU, antibody titrated
[46] = molecular target: recombinant human kynureninase (rhKYNU) (human) (UniProt Q16719); assay: ELISA on plate-bound rhKYNU, 2F5 titrated (overlay with DP178-Q16L)
[47] = molecular target: membrane conjugated gp41-inter; assay: SPR, gp41-inter held by Ni on liposomes captured on the chip, mAb injected; bivalent analyte fit [left panel]
[48] = molecular target: Env (gp120) of HIV-1 isolate JRCSF (HIV-1) (UniProt P20871); assay: cell-based or functional assay
[49] = molecular target: Env (gp120) of HIV-1 7165.18.N160K (HIV-1); assay: cell-based or functional assay
[50] = molecular target: Env (gp120) of HIV-1 JRCSF.N160K (HIV-1) (UniProt P20871); assay: cell-based or functional assay
[51] = molecular target: Env (gp120) of HIV-1 Q23.17.N160K (HIV-1); assay: cell-based or functional assay
[52] = molecular target: Env (gp120) of HIV-1 isolate Q23.17 (HIV-1); assay: cell-based or functional assay
[53] = molecular target: Env (gp120) of HIV-1 isolate JRFL (virus) (HIV-1); assay: cell-based or functional assay
[54] = molecular target: Env (gp120) of HIV-1 isolate 7165.18 (HIV-1); assay: cell-based or functional assay
[55] = molecular target: Env (gp120) of HIV-1 JRFL.N160K.E168K (HIV-1); assay: cell-based or functional assay
[56] = molecular target: Env (gp120) of HIV-1 JRFL.E168K (HIV-1); assay: cell-based or functional assay
[57] = molecular target: HV00044 (6240 TZ5 140C) (HIV-1); assay: surface plasmon resonance; five sensorgrams with fitted curves, highest rising to about 650 RU with almost no dissociation up to 1000 s

Sequence of SSB (P05455 whole entry): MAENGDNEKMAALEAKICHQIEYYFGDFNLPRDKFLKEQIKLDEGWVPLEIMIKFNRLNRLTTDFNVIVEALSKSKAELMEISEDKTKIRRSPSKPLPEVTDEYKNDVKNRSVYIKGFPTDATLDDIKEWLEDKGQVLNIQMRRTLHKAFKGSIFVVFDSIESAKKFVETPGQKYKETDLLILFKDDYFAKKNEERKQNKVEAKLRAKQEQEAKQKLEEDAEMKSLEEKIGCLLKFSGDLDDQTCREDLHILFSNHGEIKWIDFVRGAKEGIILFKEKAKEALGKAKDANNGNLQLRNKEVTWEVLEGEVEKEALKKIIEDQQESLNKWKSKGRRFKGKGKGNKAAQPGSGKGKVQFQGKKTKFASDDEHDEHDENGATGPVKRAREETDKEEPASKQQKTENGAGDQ
Sequence of Jo 1 (P12081 2-509): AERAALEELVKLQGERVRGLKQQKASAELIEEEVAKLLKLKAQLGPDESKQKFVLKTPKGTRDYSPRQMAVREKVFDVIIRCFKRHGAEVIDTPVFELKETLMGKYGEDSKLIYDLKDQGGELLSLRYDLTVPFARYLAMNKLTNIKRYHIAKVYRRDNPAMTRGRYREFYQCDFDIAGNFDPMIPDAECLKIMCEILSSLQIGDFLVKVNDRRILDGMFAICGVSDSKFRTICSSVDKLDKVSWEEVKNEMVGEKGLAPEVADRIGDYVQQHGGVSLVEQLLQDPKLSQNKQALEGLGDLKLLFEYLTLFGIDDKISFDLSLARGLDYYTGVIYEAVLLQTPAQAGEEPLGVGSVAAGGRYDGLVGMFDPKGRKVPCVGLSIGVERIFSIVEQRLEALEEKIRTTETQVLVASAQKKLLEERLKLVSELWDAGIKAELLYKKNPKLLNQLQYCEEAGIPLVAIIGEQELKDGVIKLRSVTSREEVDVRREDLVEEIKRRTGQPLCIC

## CH02 (antibody)
[1]
  Athena autoreactivity score: 2
[2]
  Athena autoreactivity score: 5
[3]
  Athena autoreactivity score: 2.5
[4]
  Athena autoreactivity score: 1.5
[5]
  Athena autoreactivity score: 5
[6]
  Athena autoreactivity score: 5
[7]
  Athena autoreactivity score: 7
[8]
  Athena autoreactivity score: 2
[9]
  Athena autoreactivity score: 4.5
[10]
  Athena autoreactivity score: 3
[11]
  Athena autoreactivity score: 1.5
[12]
  Athena autoreactivity score: 9
[13]
  Athena autoreactivity score: 6
[14]
  Athena autoreactivity score: 11.5
[15]
  background subtracted RFUs: 333 RFU
[16]
  background subtracted RFUs: 0.3 RFU
[17]
  Athena autoreactivity score: 1.5
[18]
  Athena autoreactivity score: 3.5
[19]
  Athena autoreactivity score: 2.5
[20]
  Athena autoreactivity score: 1
[21]
  Athena autoreactivity score: 6
[22]
  Athena autoreactivity score: 5
[23]
  Athena autoreactivity score: 8.5

## CH03 (antibody)
[1]
  Athena autoreactivity score: 4
[2]
  Athena autoreactivity score: 5
[3]
  Athena autoreactivity score: 7
[4]
  Athena autoreactivity score: 3
[5]
  Athena autoreactivity score: 51
[6]
  Athena autoreactivity score: 5
[7]
  Athena autoreactivity score: 231
[8]
  Athena autoreactivity score: 7
[9]
  Athena autoreactivity score: 4
[10]
  Athena autoreactivity score: 10
[11]
  Athena autoreactivity score: 4
[12]
  Athena autoreactivity score: 70
[13]
  Athena autoreactivity score: 6
[14]
  Athena autoreactivity score: 386
[24]
  Athena autoreactivity score: 132
[25]
  Athena autoreactivity score: 844
[15]
  background subtracted RFUs: 2910 RFU
[16]
  background subtracted RFUs: 1 RFU
[17]
  Athena autoreactivity score: 8
[18]
  Athena autoreactivity score: 6
[19]
  Athena autoreactivity score: 9
[20]
  Athena autoreactivity score: 4
[21]
  Athena autoreactivity score: 74
[22]
  Athena autoreactivity score: 6
[23]
  Athena autoreactivity score: 359

## 1b12 original (antibody)
[26]
  Reactivity in Luminex Units (Luminex units): 5110

## 4E10 (antibody)
[27]
  kon: 7400 M⁻¹ s⁻¹
[1]
  Athena autoreactivity score: 2
[2]
  Athena autoreactivity score: 93
[3]
  Athena autoreactivity score: 4
[4]
  Athena autoreactivity score: 65
[5]
  Athena autoreactivity score: 6
[6]
  Athena autoreactivity score: 115
[7]
  Athena autoreactivity score: 113
[28]
  kon: 600 M⁻¹ s⁻¹
[29]
  Kd: 2200 nM
[8]
  Athena autoreactivity score: 4
[9]
  Athena autoreactivity score: 206
[10]
  Athena autoreactivity score: 7
[11]
  Athena autoreactivity score: 138
[12]
  Athena autoreactivity score: 15
[13]
  Athena autoreactivity score: 247
[14]
  Athena autoreactivity score: 274
[30]
  kon: 27000 M⁻¹ s⁻¹
[31]
  koff: 0.0013 s⁻¹
[32]
  Kd: 50 nM
[33]
  Athena autoreactivity score: 254
[34]
  Athena autoreactivity score: 156
[35]
  Athena autoreactivity score: 306
[25]
  Athena autoreactivity score: 333
[36]
  Kd: 135 nM
[37]
  Kd: 40 nM
[38]
  koff: 0.001 s⁻¹
[15]
  background subtracted RFUs: 89.2 RFU
[16]
  background subtracted RFUs: 0 RFU
[39]
  kon: 21000 M⁻¹ s⁻¹
[40]
  Kd: 0.73 nM
  koff: 2.5e-05 s⁻¹
[41]
  koff: 0.00099 s⁻¹
[17]
  Athena autoreactivity score: 3
[18]
  Athena autoreactivity score: 124
[19]
  Athena autoreactivity score: 5
[20]
  Athena autoreactivity score: 87
[21]
  Athena autoreactivity score: 9
[22]
  Athena autoreactivity score: 169
[23]
  Athena autoreactivity score: 160
[42]
  koff: 0.001 s⁻¹

## 2F5 (antibody)
[43]
  EC50 (read off the curve): 0.03 µg/mL
[44]
  Reactivity in Luminex Units (Luminex units): 32700
[26]
  Reactivity in Luminex Units (Luminex units): 9240
[45]
  EC50 (read off the curve): 0.05 µg/mL
[46]
  EC50 (read off the curve): 0.05 µg/mL
[47]
  Kd: 0.21 nM
  koff: 9e-06 s⁻¹

## Synagis (anti-RSV control mAb) (antibody)
[15]
  background subtracted RFUs: 0.5 RFU
[16]
  background subtracted RFUs: 1 RFU

## PG16 (antibody)
[15]
  background subtracted RFUs: 0 RFU
[16]
  background subtracted RFUs: 0 RFU
[48]
  IC50 (virus neutralization): 0.003 µg/mL
  IC80 (virus neutralization): 0.012 µg/mL
[49]
  IC50 (virus neutralization): > 50 µg/mL
  IC80 (virus neutralization): > 50 µg/mL
[50]
  IC50 (virus neutralization): > 50 µg/mL
  IC80 (virus neutralization): > 50 µg/mL
[51]
  IC50 (virus neutralization): > 50 µg/mL
  IC80 (virus neutralization): > 50 µg/mL
[52]
  IC50 (virus neutralization): 0.001 µg/mL
  IC80 (virus neutralization): 0.003 µg/mL
[53]
  IC50 (virus neutralization): > 50 µg/mL
  IC80 (virus neutralization): > 50 µg/mL
[54]
  IC50 (virus neutralization): 11.8 µg/mL
  IC80 (virus neutralization): > 50 µg/mL
[55]
  IC50 (virus neutralization): > 50 µg/mL
  IC80 (virus neutralization): > 50 µg/mL
[56]
  IC50 (virus neutralization): 0.003 µg/mL
  IC80 (virus neutralization): 0.015 µg/mL

## CH05 (antibody)
[15]
  background subtracted RFUs: 1.3 RFU
[16]
  background subtracted RFUs: 5.5 RFU

## 17b original (CCR5 binding site antibody)
[44]
  Reactivity in Luminex Units (Luminex units): 1430

## CH04 (antibody)
[15]
  background subtracted RFUs: 0.5 RFU
[16]
  background subtracted RFUs: 2.5 RFU

## PG9 (antibody)
[57]
  Kd: 0.75 nM
[15]
  background subtracted RFUs: 0 RFU
[16]
  background subtracted RFUs: 0 RFU
[48]
  IC50 (virus neutralization): 0.003 µg/mL
  IC80 (virus neutralization): 0.008 µg/mL
[49]
  IC50 (virus neutralization): > 50 µg/mL
  IC80 (virus neutralization): > 50 µg/mL
[50]
  IC50 (virus neutralization): > 50 µg/mL
  IC80 (virus neutralization): > 50 µg/mL
[51]
  IC50 (virus neutralization): > 50 µg/mL
  IC80 (virus neutralization): > 50 µg/mL
[52]
  IC50 (virus neutralization): 0.002 µg/mL
  IC80 (virus neutralization): 0.005 µg/mL
[53]
  IC50 (virus neutralization): > 50 µg/mL
  IC80 (virus neutralization): > 50 µg/mL
[54]
  IC50 (virus neutralization): > 50 µg/mL
  IC80 (virus neutralization): > 50 µg/mL
[55]
  IC50 (virus neutralization): > 50 µg/mL
  IC80 (virus neutralization): > 50 µg/mL
[56]
  IC50 (virus neutralization): 0.008 µg/mL
  IC80 (virus neutralization): 0.055 µg/mL
